Measurements: patent US20240182596A1 (TUBULIS, published 2024)

B1: parental mAb (parental anti-NaPi2b antibody) (antibody, human IgG1, kappa, L234A L235A, V domains shown)
VH: EVQLVQSGAEVVKPGASVKMSCKASGYTFTGYNIHWVKQAPGQGLEWIGAIYPGNGDTSYKQKFRGRATLTADTSTSTVYMELSSLRSEDSAVYYCARGETARATFAYWGQGTLVTVSS
VL: DIQMTQSPSSLSASVGDRVTITCSASQDIGNFLNWYQQKPGKTVKVLIYYTSSLYSGVPSRFSGSGSGTDYTLTISSLQPEDFATYYCQQYSKLPLTFGQGTKLELKR
notes: also called parental antibody
B2: Fc-wildtype AV25 (AV25 HC-wt) (antibody)
heavy: not shown
light: DIQMTQSPSSLSASVGDRVTITCSASQDIGNFLNWYQQKPGKTVKVLIYYASSLYSGVPSRFSGSGSGTDYTLTISSLQPEDFATYYCQQYSKLPLTFGQGTKLELKRTVAAPSVFIFPPSDEQLKSGTASVVCLLNNFYPREAKVQWKVDNALQSGNSQESVTEQDSKDSTYSLSSTLTLSKADYEKHKVYACEVTHQGLSSPVTKSFNRGEC
notes: IgG1 with wild-type Fc (L234, L235); also called AV25-wt

Columns and labels:
[1] = target: T1, purified recombinant human Napi2b antigen consisting of Napi2b-extracellular-loop2 expressed as … (human, UniProt O95436 234-362, limits assumed); assay: ELISA, coated Napi2b-extracellular-loop2-Fc-6-His, apparent KD from one-site fit
T1 construct: Expressed in Expi-HEK293 cells; also called immobilized human NaPi2B; not shown: Fc part; 6-His tag
T1 sequence: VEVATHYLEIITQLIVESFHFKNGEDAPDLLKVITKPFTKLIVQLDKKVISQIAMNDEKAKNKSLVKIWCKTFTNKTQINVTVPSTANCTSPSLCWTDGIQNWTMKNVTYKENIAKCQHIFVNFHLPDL

[2] = target: T2, HEK293 rat-NaPi2B-mCherry (Rattus norvegicus, UniProt Q9JJ09); assay: flow cytometry on HEK293 cells stably expressing rat full-length NaPi2b-mCherry, Alexa-dye anti-human IgG H+L secondary antibody, MFI ratio, one-site specific binding fit; the Kd table prints no unit, the concentration axis is in nM
T2 construct: full-length mCherry fusion stably expressed on HEK293 cells; also called rat full-length NaPi2b-mCherry on HEK293 cells
T2 sequence (target on cells, looked up): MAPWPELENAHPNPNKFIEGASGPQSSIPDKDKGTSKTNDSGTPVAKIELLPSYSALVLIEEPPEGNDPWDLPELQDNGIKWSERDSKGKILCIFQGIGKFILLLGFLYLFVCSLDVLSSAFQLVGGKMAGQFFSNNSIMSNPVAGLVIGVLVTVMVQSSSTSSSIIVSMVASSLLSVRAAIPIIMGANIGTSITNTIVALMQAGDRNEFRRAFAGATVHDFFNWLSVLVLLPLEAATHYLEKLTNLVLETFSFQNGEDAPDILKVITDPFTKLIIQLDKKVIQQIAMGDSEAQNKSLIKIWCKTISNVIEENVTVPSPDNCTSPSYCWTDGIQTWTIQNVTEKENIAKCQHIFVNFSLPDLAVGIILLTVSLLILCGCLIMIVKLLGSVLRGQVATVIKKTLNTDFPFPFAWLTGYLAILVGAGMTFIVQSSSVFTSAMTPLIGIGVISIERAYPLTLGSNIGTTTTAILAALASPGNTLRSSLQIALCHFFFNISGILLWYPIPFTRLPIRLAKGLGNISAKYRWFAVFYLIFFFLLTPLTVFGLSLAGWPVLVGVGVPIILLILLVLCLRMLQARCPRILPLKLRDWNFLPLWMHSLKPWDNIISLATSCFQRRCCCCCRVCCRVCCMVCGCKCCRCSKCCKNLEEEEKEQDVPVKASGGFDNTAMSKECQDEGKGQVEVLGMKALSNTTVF

[3] = target: T1, purified recombinant human Napi2b …; assay: ELISA on immobilized recombinant human Napi2b extracellular loop 2-Fc-6-His, HRP anti-human kappa detection
[4] = target: T3, HEK293 cyno-NaPi2B-mCherry (Macaca fascicularis, UniProt A0A2K5UHY1); assay: flow cytometry on HEK293 cells stably expressing cynomolgus full-length NaPi2b-mCherry, Alexa-dye anti-human IgG H+L secondary antibody, MFI ratio, one-site specific binding fit; the Kd table prints no unit, the concentration axis is in nM
T3 construct: full-length mCherry fusion stably expressed on HEK293 cells; also called cynomolgus full-length NaPi2b-mCherry on HEK293 cells
T3 sequence (target on cells): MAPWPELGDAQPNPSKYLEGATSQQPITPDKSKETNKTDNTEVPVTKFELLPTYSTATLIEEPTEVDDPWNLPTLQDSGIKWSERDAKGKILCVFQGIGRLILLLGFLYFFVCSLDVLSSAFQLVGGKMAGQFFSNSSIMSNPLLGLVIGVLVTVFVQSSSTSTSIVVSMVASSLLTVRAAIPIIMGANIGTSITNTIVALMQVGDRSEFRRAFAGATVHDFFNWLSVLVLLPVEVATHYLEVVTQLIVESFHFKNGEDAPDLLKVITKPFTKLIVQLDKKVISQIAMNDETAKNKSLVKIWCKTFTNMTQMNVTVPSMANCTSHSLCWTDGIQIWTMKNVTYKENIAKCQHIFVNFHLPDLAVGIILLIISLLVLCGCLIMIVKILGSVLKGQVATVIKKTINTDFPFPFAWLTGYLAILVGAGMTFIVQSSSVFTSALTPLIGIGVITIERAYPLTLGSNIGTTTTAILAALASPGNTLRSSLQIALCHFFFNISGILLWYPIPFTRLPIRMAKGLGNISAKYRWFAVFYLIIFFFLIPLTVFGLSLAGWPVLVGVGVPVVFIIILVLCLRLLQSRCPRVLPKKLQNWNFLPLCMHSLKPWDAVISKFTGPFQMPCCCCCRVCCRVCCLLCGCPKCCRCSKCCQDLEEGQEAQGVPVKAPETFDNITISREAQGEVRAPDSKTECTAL

[5] = target: T4, human Napi2b-mCherry on HEK293 cells (human, UniProt O95436 1-690); assay: flow cytometry on HEK293 cells stably expressing human full-length NaPi2b-mCherry, Alexa-dye anti-human IgG H+L secondary antibody, MFI ratio, one-site specific binding fit; the Kd table prints no unit, the concentration axis is in nM; second experiment on human cells, run beside the rat cells of FIG. 3D
T4 construct: also called Napi2b (SLC34A2); HEK293 cells overexpressing Napi2b
T4 sequence: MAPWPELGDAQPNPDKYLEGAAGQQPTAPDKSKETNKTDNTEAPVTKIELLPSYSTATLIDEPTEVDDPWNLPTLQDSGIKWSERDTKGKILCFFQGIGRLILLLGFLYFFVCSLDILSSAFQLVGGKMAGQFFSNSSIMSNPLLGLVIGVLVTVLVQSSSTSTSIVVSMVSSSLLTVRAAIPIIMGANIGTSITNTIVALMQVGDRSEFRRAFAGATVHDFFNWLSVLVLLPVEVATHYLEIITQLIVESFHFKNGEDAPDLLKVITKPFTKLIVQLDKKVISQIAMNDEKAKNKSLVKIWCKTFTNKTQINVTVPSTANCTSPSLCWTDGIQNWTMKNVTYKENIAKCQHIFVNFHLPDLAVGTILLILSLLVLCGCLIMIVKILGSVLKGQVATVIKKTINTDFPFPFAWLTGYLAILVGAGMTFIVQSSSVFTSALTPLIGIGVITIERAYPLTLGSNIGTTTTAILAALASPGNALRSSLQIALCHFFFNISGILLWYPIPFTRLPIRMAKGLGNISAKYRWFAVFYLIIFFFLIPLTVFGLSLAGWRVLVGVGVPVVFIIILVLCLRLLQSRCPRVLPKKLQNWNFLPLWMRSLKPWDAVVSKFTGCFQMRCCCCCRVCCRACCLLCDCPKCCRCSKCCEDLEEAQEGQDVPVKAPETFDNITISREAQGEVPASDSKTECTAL

[6] = target: T4, human Napi2b-mCherry on HEK293 cells; assay: flow cytometry on HEK293 cells stably expressing human full-length NaPi2b-mCherry, Alexa-dye anti-human IgG H+L secondary antibody, MFI ratio, one-site specific binding fit; the Kd table prints no unit, the concentration axis is in nM
[7] = target: T5, human NaPi2b on NaPi2b-positive cell lines OVCAR-3 and HCC-78 (human, UniProt O95436 1-690); assay: flow cytometry on OVCAR-3 cells; table column Binding KD (nmol/L), FACS (OVCAR-3)
T5 construct: Endogenous protein
T5 sequence: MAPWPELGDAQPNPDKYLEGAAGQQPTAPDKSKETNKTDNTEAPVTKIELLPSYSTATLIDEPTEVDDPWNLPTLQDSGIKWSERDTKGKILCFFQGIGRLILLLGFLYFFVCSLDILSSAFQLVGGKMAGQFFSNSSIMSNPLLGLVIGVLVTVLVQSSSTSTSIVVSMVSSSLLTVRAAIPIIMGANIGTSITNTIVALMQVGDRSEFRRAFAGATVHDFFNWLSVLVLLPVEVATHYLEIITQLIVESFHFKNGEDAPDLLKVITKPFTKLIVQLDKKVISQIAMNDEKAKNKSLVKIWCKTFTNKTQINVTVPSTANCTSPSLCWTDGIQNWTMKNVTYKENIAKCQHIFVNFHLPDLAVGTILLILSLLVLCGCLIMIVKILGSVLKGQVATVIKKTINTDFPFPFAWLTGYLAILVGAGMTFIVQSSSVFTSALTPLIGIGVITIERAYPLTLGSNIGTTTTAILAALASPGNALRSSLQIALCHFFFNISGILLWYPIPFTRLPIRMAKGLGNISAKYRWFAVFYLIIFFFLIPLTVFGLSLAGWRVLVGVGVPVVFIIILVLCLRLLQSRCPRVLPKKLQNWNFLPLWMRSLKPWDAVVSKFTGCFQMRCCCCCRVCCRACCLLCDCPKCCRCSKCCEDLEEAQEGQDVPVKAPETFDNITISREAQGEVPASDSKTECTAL

[8] = target: T1, purified recombinant human Napi2b …; assay: ELISA on the isolated immobilized protein; table column Binding KD (nmol/L), ELISA
[9] = target: T6, recombinant hexameric C1q complement protein (human) (human, UniProt P02745 23-245; P02746 28-253; P02747 29-245); assay: HTRF Human C1q Binding Kit (Cisbio), HTRF ratio at 70 nM antibody with the diluent-only background subtracted
T6 construct: also called complement factor C1q

[10] = target: T7, recombinant human FcγRI (FcγR-SmBiT, Lumit assay) (human, UniProt P12314 16-292); assay: Lumit FcγRI Binding Immunoassay (Promega), competition with Tracer-LgBiT for FcγRI-SmBiT, n=1
T7 construct: Kit reagent (Promega); also called FcγRI (CD64); not shown: SmBiT label of the kit

FcγRIIa (CD32) (H131) = target: T8, FcγRIIa (CD32) (H131) (Fused to the SmBiT luciferase fragment (Promega Lumit reagent), not carried in the letters); assay: Lumit FcγRIIa (H131) Binding Immunoassay (Promega), left panel FcγRIIa (CD32) (H131), competition with Tracer-LgBiT, n=1
T8 construct: m20 joins both polymorphic variants; also called H131 variant of m20; not shown: SmBiT tag (and any linker or purification tag) of Promega's FcγR-SmBiT fusion
T8 chain: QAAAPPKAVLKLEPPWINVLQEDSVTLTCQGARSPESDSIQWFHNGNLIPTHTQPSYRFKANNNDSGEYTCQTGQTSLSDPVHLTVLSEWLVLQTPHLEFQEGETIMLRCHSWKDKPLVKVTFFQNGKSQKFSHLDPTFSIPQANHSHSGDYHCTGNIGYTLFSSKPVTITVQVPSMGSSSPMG

[11] = target: T9, recombinant human FcRn (FcγRn-SmBiT, Lumit assay) (human, UniProt P55899 24-297; P61769 21-119); assay: Lumit FcRn Binding Immunoassay (Promega), competition with Tracer-LgBiT for FcRn-SmBiT, n=1
T9 construct: Kit reagent (Promega); not shown: SmBiT label of the kit

FcγRIIIa (CD16) (V158) = target: T10, FcγRIIIa (CD16) (V158) (Homo sapiens, UniProt P08637); assay: Lumit FcγRIIIa (V158) Binding Immunoassay (Promega), left panel FcγRIIIa (CD16) (V158), competition with Tracer-LgBiT, n=1
T10 construct: m21 joins both polymorphic variants; also called V158 variant of m21

Binder | Kd [1] | Kd [2] | EC50 (read off the curve) [3] | Kd [4] | Kd [5] | Kd [6] | Kd [7] | Kd [8] | binding result [9] | IC50 (read off the curve) [10] | IC50 (read off the curve) (FcγRIIa (CD32) (H131)) | IC50 (read off the curve) [11] | IC50 (read off the curve) (FcγRIIIa (CD16) (V158))
B1 | 0.0221 µg/mL | 6.88 nM | ~0.02 µg/mL | 4.48 nM | 2.85 nM | 5.43 nM | 10.8 nM | 0.147 nM | – | – | – | – | –
B2 | – | – | – | – | – | – | – | – | binds | ~0.02 µg/mL | ~1 µg/mL | ~3 µg/mL | ~2 µg/mL
